From the supplement of paper PMC10567573

B1: ARL6IP1 (parent)
chain: YLDPSVLSGVSCFVMFLCLADYLV
B2: DLC1 (parent)
chain: KRSWEEHVTHWMGQPFNSDDRNTA

Variants of: B1
Experiment: protein stability index of a GFP-peptide fusion (GPS, HEK-293T) (PSI 1-6); higher = more stable
Settings: c terminus: a fixed tail appended
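Note: lentivirally expressed fusions sorted by FACS into six bins by GFP to DsRed ratio, PSI derived from sequencing read proportions per bin multiplied by bin number.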

Point of comparison: D3N, protein stability index 3.7. Against it:
- Y1M — lower, 3.37
- Y1D — lower, 2.61
- Y1R — lower, 2.81
- Y1H — higher, 3.89
- Y1V — lower, 2.9
- Y1I — lower, 2.63
- Y1C — lower, 3.1
- Y1N — higher, 4.11
- Y1A — lower, 1.59
- L2D — higher, 3.95
- L2F — lower, 3
- L2R — lower, 2.5
- L2Q — lower, 2.09
- L2T — higher, 3.75
- L2I — lower, 1.63
- L2P — lower, 2.76
- L2H — lower, 2.67
- L2E — lower, 3.04
- L2N — lower, 2.5
- L2K — lower, 3.31
- L2C — lower, 2.99
- L2A — lower, 2.29
- L2Y — lower, 2.35
- P4D — lower, 3.12
- P4G — lower, 3.42
- P4K — lower, 2.63
- P4M — lower, 3.45
- P4V — lower, 3.33
- P4L — lower, 2.76
- P4C — lower, 3.21
- P4I — lower, 2.66
- P4N — lower, 2.9
- S5G — lower, 3.63
- S5D — lower, 3.07
- S5H — lower, 3.5
- D3Y — lower, 2.54
- D3Q — lower, 3.57
- D3V — lower, 2.91
- D3S — lower, 2.72
- D3P — lower, 3.06
- D3E — lower, 1.94
- D3I — lower, 2.83
- D3T — lower, 2.59
- D3H — lower, 1.69
- D3A — higher, 5.08
- D3R — lower, 3.64

Variants of: B2
Experiment: as above
Settings: c terminus: a fixed tail appended

Point of comparison: F16G, protein stability index 3.14. Against it:
- T23I — lower, 2.35
- T23E — lower, 2.73
- T23D — higher, 3.26
- T23A — lower, 2.22
- T23H — lower, 2.23
- T23F — lower, 2.13
- S18C — lower, 2.34
- S18M — lower, 2.92
- S18P — lower, 3.11
- S18R — lower, 2.1
- S18G — lower, 2.76
- F16W — lower, 2.35
- F16S — lower, 3.07
- F16V — higher, 3.34
- F16K — lower, 2.97
- F16L — higher, 3.55
- F16P — lower, 2.68
- R2C — lower, 2.52
- R2T — higher, 3.7
- R2E — higher, 3.61
- R2S — higher, 3.79
- R2D — higher, 4.37
- R2W — lower, 2.98
- T9S — lower, 2.38
- T9R — lower, 3.1
- T9M — higher, 3.48
- E6P — higher, 3.46
- E6Q — higher, 3.27
- E6M — lower, 2.66
- E6S — higher, 3.24
- E6V — lower, 2.53
- E6K — higher, 3.32
- G13P — lower, 2.88
- G13Y — lower, 2.08
- G13K — lower, 2.13
- G13I — lower, 2.25
- G13L — lower, 2.73
- N22C — lower, 1.94
- N22L — lower, 2.06
- N22W — lower, 1.7
- N22G — lower, 2.81
- D19L — lower, 2.12
- D19H — lower, 2.29
- D19K — lower, 2.61
- D19R — lower, 2.54
- D19V — lower, 1.97
- D19T — lower, 2.4
- D19S — lower, 2.6
- D19Q — lower, 2.65
- W11I — lower, 3.01
- W11F — lower, 2.7
- W11G — lower, 2.69
- W11L — lower, 2.85
- W11Y — lower, 2.82
- W11M — lower, 2.54
- W11P — higher, 3.54
- H7P — higher, 4.2
- H7D — higher, 3.68
- H7I — higher, 3.75
- H7L — lower, 2.64
- H7G — higher, 4.29
- N17T — higher, 3.4
- N17V — lower, 2.26
- N17G — lower, 2.44
- N17H — lower, 2.73
- N17W — lower, 2.77
- N17S — lower, 2.63
- R21V — higher, 3.31
- R21L — higher, 3.36
- R21T — lower, 3.08
- R21I — lower, 2.61
- R21G — higher, 3.17
- P15T — lower, 2.29
- S3D — higher, 4.33
- S3N — higher, 3.81
- S3H — higher, 3.72
- S3C — lower, 2.24
- A24C — lower, 2.32
- A24Q — higher, 3.18
- A24K — higher, 3.54
- A24G — lower, 2.97
- A24I — lower, 2.81
- A24P — lower, 2.92
- K1D — higher, 4.26
- K1W — lower, 2.49
- K1N — higher, 3.63
- K1Q — higher, 3.76
- K1H — lower, 2.69
- H10R — lower, 2.19
- H10I — lower, 1.95
- H10S — lower, 2.73
- H10A — lower, 2.17
- H10W — lower, 2.31
- H10E — lower, 3.1
- E5H — higher, 3.56
- E5T — lower, 2.4
- E5S — higher, 3.41
- E5Y — lower, 3.04
- E5I — lower, 1.92
- E5L — lower, 2.47
- D20E — lower, 2.87
- D20I — lower, 2.54
- D20K — lower, 2.51
- D20W — lower, 1.59
- M12K — lower, 2.98
- M12T — higher, 3.34
- M12H — lower, 2.94
- M12L — lower, 2.94
- W4N — higher, 4.95
- W4K — higher, 4.48
- W4E — higher, 5.05
- W4Q — higher, 4.71
- W4R — higher, 4.62
- V8T — higher, 3.84
- V8Y — higher, 3.99
- Q14H — lower, 2.36
- Q14I — lower, 2.44
- Q14N — lower, 2.75
- Q14W — lower, 2.03
